Test results published in the DeepSol protein solubility set.

Test: soluble on expression in E. coli; label from the status in PepcDB or PDB records

| Sequence | soluble on expression in E. coli |
| --- | --- |
| MGSDKIHHHHHHMAITIQNHELQVTLKALGATMTSITDSQGVEYLWQGDATYWGGQAPILFPICGSVRNDCVIYRPAQAPHFTGIIPRHGFVRHKTFDYDYISDSSVRFTIKSSKEMLINYPYRFSLEITYTLRNKSIAITYIVKNLESEKNMPYAIGAHPGFNCPLFEKEVFSDYYLEFEQFETCTIPESFPDTGLLDLQARHPFLENQKQLSLNHALFEKDAITLDQLRSKTVYLKSRNHAKGIQLDFDDFENLILWTSNNGGPFLALEPWSSLSTSIEESDILEDKQNIVRLNPKQSKQHSIRITIL | not soluble |
| MLNTTFANAKFANPFMNASGVHCMTIEDLEELKASQAGAYITKSSTLEKREGNPLPRYVDLELGSINSMGLPNLGFDYYLDYVLKNQKENAQEGPIFFSIAGMSAAENIAMLKKIQESDFSGITELNLSCPNVPGKPQLAYDFEATEKLLKEVFTFFTKPLGVKLPPYFDLVHFDIMAEILNQFPLTYVNSVNSIGNGLFIDPEAESVVIKPKDGFGGIGGAYIKPTALANVRAFYTRLKPEIQIIGTGGIETGQDAFEHLLCGATMLQIGTALHKEGPAIFDRIIKELEEIMNQKGYQSIADFHGKLKSL | soluble |
| MIDLKELKKYCNHSYLTIRNDKIIVGNKGLARLSKEKMRKIEMDFEIPVVYSRVFEEISERMGRYVSKNNIISPKDKILVGLSGGKDSLALLHLLEPYRRKYGVQIYAVTVDLNINGIRPWTESNKNVKMISEHCKNLNIPHEIIAHDGNVVEMSKILSENTKGIEYSPCFSCSMVRRHVLTNYAKNNFESDSNVKIAIGHTLEDNSDTIMANIFKGNVIKALEPIKNFNKTDVDFKDFKLNLKSCCMIRPMLNVSEEKIVKALVECDIEYYKDKDECPYSRHNGDGIRKKSHEVLKSLEEDVPNIREMIISSILNSIEQYKQK | not soluble |
| MTIYTLSHGSLKLDVSDQGGVIEGFWRDTTPLLRPGKKSGVATDASCFPLVPFANRVSGNRFVWQGREYQLQPNVEWDAHYLHGDGWLGEWQCVSHSDDSLCLVYEHRSGVYHYRVSQAFHLTADTLTVTLSVTNQGAETLPFGTGWHPYFPLSPQTRIQAQASGYWLEREQWLAGEFCEQLPQELDFNQPAPLPRQWVNNGFAGWNGQARIEQPQEGYAIIMETTPPAPCYFIFVSDPAFDKGYAFDFFCLEPMSHAPDDHHRPEGGDLIALAPGESTTSEMSLRVEWLLEHHHHHH | soluble |
| AHHHHHHGSTWREILRKEGFLDLGEFIVELVYIDCPCEPIPPTLAIYDKKGDEWYKVEEAPNVQNYREAVEWAIEVLERIRDGENVKLVSLDGPAPPKVMKRLSLALQKLTE | not soluble |
| MRSFIISSALLVILVQCGYPVAENSYPTTPSYPTPPPSYPTPKKYPVAPTYPSPPAYAQKPSYSAPPPPAPSVYSSSSFSDNEVASDSEYTTASPNSEYRKRAKARTAHNRKFQRRALTPIRRFQQKKQ | not soluble |
| MSLGIGHPMWVGWCIIIAMRSIPASVESSVLRWARESCGLTEVAAARKLGLPDDRVAAWEVGEVVPTIAQLRKAAEVYKRSLAVFFLSEPPEGFDTLRDFRRLDGAASGQWTPGLHEEFRRAHTQRDFALELADAEDREIPGAWRLPLSGDEADADIAARIRKALIEVSPLPIPVASVDPYEHLNAWVSAIETSGVLVLATRGGKVAIDEMRGMCLYFDELPVIVLNGSDHPRPRLFSLLHEFVHVVLHTEGLCDVIADAHPSTQDRSLEARCNAIAAAVLMPADVVRARPEVIVRSETPSSWDYESLRPVAAHFGVSAEAFLRRLSTLGIVPVEVYRQRRAEFIAAHEDEAEGHHHHHH | soluble |
| MSHYQCAVCSSIDANPNSLAVNYQCLADSSVVGEFHVLPRHQGYTDLLHGGIASSLLDGAMTHCLLFRDIQALTAQLDVRYHAPIELDEHVTITAHCEGERRGIYQLVAQLLVNNEVRVTAKGKFIRPKLEHHHHHH | soluble |
| GAMVMRLGDAAELCYNLTSSYLQIAAESDSIIAQTQRAINTTKSILINETFPKWSPLNGEISFSYNGGKDCQVLLLLYLSCLWEYYIVKLSQSQFDGKFHRFPLTKLPTVFIDHDDTFKTLENFIEETSLRYSLSLYESDRDKCETMAEAFETFLQVFPETKAIVIGIRHTDPFGEHLKPIQKTDANWPDFYRLQPLLHWNLANIWSFLLYSNEPICELYRYGFTSLGNVEETLPNPHLRKDKNSTPLKLNFEWEIENRYKHNEVTKAEPIPIADEDLVKIENLHEDYYPGWYLVDDKLERAGRIKKK | soluble |
| METLHTQEDIIKMLDSLLRPAEPFWNEFYANREKDVPFFENVPDENLVSYIQKKRVSKGKVLELGCGPGRNAIYLANEGFDVTAVDVSIEGINWAKERALAKGVEIEFICDSIFNLEVQNEFDFVYDSGCLHHIPPHRRVNYVDLIKNALKSGGYFGLTCFAAGDLDERNGSEITDWDVYRGWSLQGGLAYSEEKLREIFKGFEVIEIRKMEQIEQPNTMFGESFLWTALFKKNLEHHHHHH | not soluble |
| NIYLDKRITKQATQFLEAARAIDSREHLISGYRSVAYQEKLFNSYVTQEMTSNPNLTRGQAEKLVKTYSQPAGASEHQTGLAMDMSTVDSLNESDPRVVSQLKKIAPQYGFVLRFPDGKTAETGVGYEDWHYRYVGV | not soluble |
| LWGIFVEQADGHYRVRLRSKIHPINEIAKEHDGGGHPLASGANSYSLEENEIIY | soluble |
| MKKVVTVCPYCASGCKINLVVDNGKIVRAEAAQGKTNQGTLCLKGYYGWDFINDTQILTPRLKTPMIRRQRGGKLEPVSWDEALNYVAERLSAIKEKYGPDAIQTTGSSRGTGNETNYVMQKFARAVIGTNNVDCCARVCHGPSVAGLHQSVGNGAMSNAINEIDNTDLVFVFGYNPADSHPIVANHVINAKRNGAKIIVCDPRKIETARIADMHIALKNGSNIALLNAMGHVIIEENLYDKAFVASRTEGFEEYRKIVEGYTPESVEDITGVSASEIRQAARMYAQAKSAAILWGMGVTQFYQGVETVRSLTSLAMLTGNLGKPHAGVNPVRGQNNVQGACDMGALPDTYPGYQYVKDPANREKFAKAWGVESLPAHTGYRISELPHRAAHGEVRAAYIMGEDPLQTDAELSAVRKAFEDLELVIVQDIFMTKTASAADVILPSTSWGEHEGVFTAADRGFQRFFKAVEPKWDLKTDWQIISEIATRMGYPMHYNNTQEIWDELRHLCPDFYGATYEKMGELGFIQWPCRDTSDADQGTSYLFKEKFDTPNGLAQFFTCDWVAPIDKLTDEYPMVLSTVREVGHYSCRSMTGNCAALAALADEPGYAQINTEDAKRLGIEDEALVWVHSRKGKIITRAQVSDRPNKGAIYMTYQWWIGACNELVTENLSPITKTPEYKYCAVRVEPIADQRAAEQYVIDEYNKLKTRLREAALA | soluble |
| MTSLSQFEPLFLEFMQQEMQVDAAHDIEHVKRVVKTAKQLCDEENADIAIVLPAAYLHDCFTYPKDHPNRKQSSAIAAKKAIAYLESIQYPQHYHDAIAHAIEAHSFSANIRPNTLEAQIVQDADRLDALGAIGVTRCIQVSTHFNAQLYNDNDMFAKERELNDKQFTVDHFQTKLFKIADTMNTESAKLEANKRKAFMQTYLKQLHDEVTALEHHHHHH | soluble |
| MGSDKIHHHHHHMHFLDDSLLPENQEKLVIQVAPYGPQWLPGDSDDIPVTMDEQVQKAVDCYNAGATVLHVHVREADGKGSKRLSMFNEMLARLREAVPGMVLQVGGSISFAPENDNQAAKWLNDDTRHMLAELSPRPDQVTVAINTSQMNVMELMTEADVAGTSLTNPALQAAYRDMIVPSNPSWHVEHIKRLVANGIQPHFMLGNLTQLETVERLIRRGVYTGPLVLNYVAIGGGAAGLHPADMVEFARRTPDGAVLTVETLNRNVVPLNTMAIAMGLHVRVGIEDTLYGPDGKRATSVQQIEKMVNIARELNREIASGTDAHRIYQTGTRWSSTEETLNRLGMVPNRQPEQRGVPPRKAA | not soluble |
| MGHHHHHHSHRRQHPLPLLLLRHLRPQAHREPPQVYTSSQPLRVGYYETDNYTMPSPAMRRAVLETKQSLEAAGHTLVPFLPSNIPHALETLSTGGLFSDGGHTFLQNFKGDFVDPCLGDLVSILKLPQWLKGLLAFLVKPLLPRLSAFLSNMKSRCTAKP | not soluble |
| MAHHHHHHMWTAPPSLRTVRPIFLPLNVVANSTSSLLLHPGQLDLKHVEGYMTSKKWLSKLKCCGDNPLTVDEMKALVLMFLKKISDTYVDDQAKWMNKMRSSQEEQGKALEEAMNEYEKNILFNHALKEQQLLHNNKKISEWNETIENAYEAQQEVLRQFEAKKREDKKKMALEKNNELIIAKDYIDKIKEAATDSRYANSKCFVYPASSAPCGACTSAGAIAPYRRFKEPRRKKQYSLCL | not soluble |
| MKGDVSPIFSPKHLQFKRPTLWRYGRIQKISIMSSKRSSPTGKLRLLSFLRDLLEDESNSDIIYWFDKSESVFKMSKPHKVAELWGAATGNPGMNYDKMSRGLRYFYTNNTLEKVPGKDARYRFIDSPRHSFLDFSMKTELETPVKRTPLFNISNLISDFEVSNNSLTSSPTSSASSVEPSSPTTTESSLDPSQFVQLTQNLVQFNTFMSQNPMFHTLPLPTQLQVFFNFKTIFPSLFPALV | not soluble |
| MSLKKLDYHFHSHFSADSEELPRKHVTEAIAHGLEEICFTEHRDFYFPGMDFSLNLPEYFQEINRLQAEFKDKIKIKIGLEMGIDLRFKSEINQFIDSAPFDFVIASVHEIGDIEVYDGTEFYLQKIKEEAQREYLLACLDVVQNFENYNSFGHLDYVARYGPYTDKSIKFAENREILFEILRALASKEKALEINTRLFDDPKTEQFYSDLLINFKKLGGKFITLGTDSHIAKRDWLSIHKARTLIKKAGFHELATFSGMKIDKNKKSIKEGHHHHHH | soluble |
| AATSRDALPNTEASGPTHSKEIPALTAVETGATNPLVPSDTVQTRHVVQHRSRSESSIESFFARGACVTIMTVDNPASTTNKDKLFAVWKITYKDTVQLRRKLEFFTYSRFDMELTFVVTANFTETNNGHALNQVYQIMYVPPGAPVPEKWDDYTWQTSSNPSIFYTYGTAPARISVPYVGISNAYSHFYDGFSKVPLKDQSAALGDSLYGAASLNDFGILAVRVVNDHNPTKVTSKIRVYLKPKHIRVWCPRPPRAVAYYGPGVDYKDGTLTPLSTKDLTTY | soluble |
| MGSDKIHHHHHHMENRITLRHLEAFRAIMVRKSVTGAAEMLEVTQPVVTRLIADLEERIALTLFTRTKGRLVPTPEAALLVKDVEQSLLSIERIANAATNIKSLKMGRLEIAASPNMALSFLPRAINSFTLAHPEAHVSMRMHSSPTVLDMVQRDQCDLGFAMFPARSTKSGNSETLVSAKMVAVVPKTHALATKRTLRPEHFEGERFISMMPLMESRMRIDSLMLSHGVRRHVNCETQTSAAVLQLVEAGVGISIIDPLTACGYTGTGVKFLNFEPVIRNDYSIVISQRNSSTLILKPFIDHAKREILNMVPAHLLIRS | not soluble |
| MDVTDKIRPWMKECRLCPRNCGADRMAGQKGFCGTDTEIMVARAALHMWEEPCISGKEGSGAVFFSGCSLGCNFCQNRRISRGQRGKKITQEHLVELFFQLQEQGANNINLVTAGHFLPQVAVALEMAKEQGLHIPVVYNSSGYEKAKTLKMLDGLVDIYLPDFKYMDAVLAKKYSHAQDYPEIAKEALSEMVRQVGEAEFDSRGMMKKGVIVRQLLLPGHVKDAKNVLKYLYETYGDRIYISMMNQYTPMPAMKDDPQLSRKVTDREYERLIDYAISLGLKNGFMQEGETAKESFIPEFDGEGV | not soluble |
| MAHHHHHHMSVTASAAAAAAAAAASPRPPSSALYTERLFYAVLKQGNPSEARVEALAALALRHLPKSAETWAALRKALMEQSDLDGAPNRTLWYVLDALIKHAPHVFVPLVAPRLLEYTIQQLPWELAGHRGQTLLWFEALVLSWEKVLPQRLYSAVRQHAVQSRSGAELHDLLEAAENSVDDGTSASPADLQQLRDAWDAVQYMGEQEAGKSVFHARLIAAAVVVADEDGNSSLSPSPPVSGLYATPTGHNGRTAGAGTSGADIANTQQQQQQQEEDEYTPDFIEGAKPRELPKLDLPKLKRRREGRRRPREEDLGM | soluble |
